For orientation: Kd means a measure of binding affinity in units of concentration.

The record followed here is US20220112276A1 (Janssen / Centocor, published 2022).

Common to all, as to assay: SPR, VHH captured by anti-Fc, ECD analyte
Background: SPR reads the build-up and loss of mass on a sensor chip optically.

The target of test [1] is T1, human pIgR extracellular domain (ECD) (human, UniProt P01833 19-638).
T1 construct: Bought from R&D Systems (Cat 2717-PG-050); also called hpIgR ECD
The procedure, abridged:
(§1)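 Single-cycle kinetics: ECD analyte from 30 nM, 3-fold series, low to high, with 30 min off-rate monitoring, over VHH captured at 0.5 ug/ml (~200-300 RU). HBSP plus 100 ug/ml BSA at 30 μL/min. Reference cell and buffer blank subtracted; global 1:1 Langmuir fit gave kon, koff, KD.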

In test [2] the target is T2, mouse pIgR extracellular domain (ECD) (mouse, UniProt O70570 19-645).
T2 construct: Bought from R&D Systems (Cat 2800-PG-050); also called mpIgR ECD
T2 sequence: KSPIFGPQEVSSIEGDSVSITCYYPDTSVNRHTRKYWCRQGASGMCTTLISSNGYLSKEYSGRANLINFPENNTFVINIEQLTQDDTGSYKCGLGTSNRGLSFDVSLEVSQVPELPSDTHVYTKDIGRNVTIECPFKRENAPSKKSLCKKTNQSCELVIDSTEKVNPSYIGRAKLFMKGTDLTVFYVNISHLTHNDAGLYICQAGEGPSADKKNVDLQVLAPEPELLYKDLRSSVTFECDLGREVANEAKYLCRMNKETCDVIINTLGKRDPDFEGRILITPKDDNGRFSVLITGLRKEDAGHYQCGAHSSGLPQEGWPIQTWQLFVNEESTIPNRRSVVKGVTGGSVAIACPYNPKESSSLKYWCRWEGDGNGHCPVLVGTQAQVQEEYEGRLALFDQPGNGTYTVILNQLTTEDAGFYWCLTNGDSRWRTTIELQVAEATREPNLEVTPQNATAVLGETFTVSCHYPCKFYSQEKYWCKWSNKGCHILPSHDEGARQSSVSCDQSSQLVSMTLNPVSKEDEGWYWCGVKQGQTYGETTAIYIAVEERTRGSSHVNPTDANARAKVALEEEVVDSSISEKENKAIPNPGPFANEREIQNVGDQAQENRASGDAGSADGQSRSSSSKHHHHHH
The procedure, abridged:
as §1

Test [3] deals with T3, cynomolgus monkey pIgR extracellular domain (cynomolgus monkey, UniProt A0A2K5WMU9 19-638).
T3 construct: extracellular domain
The method, boiled down: as §1

Test [4] concerns the target T4, rat pIgR extracellular domain (rat, UniProt P15083 19-643).
T4 construct: extracellular domain
T4 sequence (looked up): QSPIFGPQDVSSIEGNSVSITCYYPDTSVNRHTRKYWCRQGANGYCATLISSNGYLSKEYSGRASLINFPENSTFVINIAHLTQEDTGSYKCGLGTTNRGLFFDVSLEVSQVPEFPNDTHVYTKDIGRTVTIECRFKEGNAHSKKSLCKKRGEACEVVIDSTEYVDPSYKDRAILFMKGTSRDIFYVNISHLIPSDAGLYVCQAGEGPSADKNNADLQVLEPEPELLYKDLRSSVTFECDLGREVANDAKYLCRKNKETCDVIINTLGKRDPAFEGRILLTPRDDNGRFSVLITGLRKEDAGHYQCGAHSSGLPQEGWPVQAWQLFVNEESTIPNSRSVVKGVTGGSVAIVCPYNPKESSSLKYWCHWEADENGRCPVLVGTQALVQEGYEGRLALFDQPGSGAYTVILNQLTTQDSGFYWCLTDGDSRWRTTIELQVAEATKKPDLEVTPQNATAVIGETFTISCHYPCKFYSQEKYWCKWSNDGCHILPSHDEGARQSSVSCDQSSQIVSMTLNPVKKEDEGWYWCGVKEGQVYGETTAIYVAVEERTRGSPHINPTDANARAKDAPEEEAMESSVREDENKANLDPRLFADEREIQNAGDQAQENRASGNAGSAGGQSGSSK
The method, boiled down: as §1

T1 sequence (P01833 other isoform, or with tags, fused parts or gaps): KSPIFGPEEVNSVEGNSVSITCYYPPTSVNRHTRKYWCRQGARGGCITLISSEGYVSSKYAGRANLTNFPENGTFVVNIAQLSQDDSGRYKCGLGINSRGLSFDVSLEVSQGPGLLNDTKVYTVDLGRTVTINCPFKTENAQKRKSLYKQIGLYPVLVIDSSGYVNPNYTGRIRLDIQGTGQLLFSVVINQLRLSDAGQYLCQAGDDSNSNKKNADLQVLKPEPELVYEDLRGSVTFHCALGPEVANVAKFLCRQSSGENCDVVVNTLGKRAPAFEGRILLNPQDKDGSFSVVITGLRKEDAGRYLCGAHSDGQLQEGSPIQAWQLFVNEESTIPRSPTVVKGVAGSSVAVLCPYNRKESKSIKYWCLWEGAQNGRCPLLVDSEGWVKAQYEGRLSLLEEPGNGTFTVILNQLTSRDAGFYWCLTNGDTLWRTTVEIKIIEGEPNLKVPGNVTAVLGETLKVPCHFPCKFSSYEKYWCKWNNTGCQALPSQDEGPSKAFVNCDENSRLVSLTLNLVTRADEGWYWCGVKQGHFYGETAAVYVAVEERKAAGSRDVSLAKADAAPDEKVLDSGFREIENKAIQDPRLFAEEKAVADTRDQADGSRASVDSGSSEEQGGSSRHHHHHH
T3 sequence (A0A2K5WMU9 entry or part of it): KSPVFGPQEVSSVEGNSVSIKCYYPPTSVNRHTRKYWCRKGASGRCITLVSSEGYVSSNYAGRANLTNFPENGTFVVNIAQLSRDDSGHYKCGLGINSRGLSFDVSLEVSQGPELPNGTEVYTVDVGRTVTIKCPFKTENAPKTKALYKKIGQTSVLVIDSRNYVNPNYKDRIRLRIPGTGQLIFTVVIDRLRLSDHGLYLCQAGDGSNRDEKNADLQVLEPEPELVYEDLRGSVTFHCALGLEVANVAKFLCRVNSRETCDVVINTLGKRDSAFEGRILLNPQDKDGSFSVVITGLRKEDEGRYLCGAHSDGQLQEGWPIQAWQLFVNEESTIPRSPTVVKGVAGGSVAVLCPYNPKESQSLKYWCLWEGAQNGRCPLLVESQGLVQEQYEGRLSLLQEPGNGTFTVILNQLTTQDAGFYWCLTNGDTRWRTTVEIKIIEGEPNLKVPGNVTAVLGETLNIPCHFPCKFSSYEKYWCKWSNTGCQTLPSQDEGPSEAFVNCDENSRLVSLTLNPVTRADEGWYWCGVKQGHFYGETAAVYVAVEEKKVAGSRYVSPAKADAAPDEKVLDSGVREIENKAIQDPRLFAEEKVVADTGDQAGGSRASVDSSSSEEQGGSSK

B1: 01C02R3LS VHH Mono-Fc (Fc fusion)
chain: QVQLVESGGGLVQAGDSLRLSCAASGRTRTTYGMGWFRQAPGKEREFVTTITWSGSTNYKYYADSVKGRFTISRDNAKNTVYLQMNSLKPDDTAVYYCAASTVLTDPRVPTEYDYWGQGTQVTVSSSPAPELLGGPSVFLFPPKPKDTLMISRTPEVTCVVVDVSHEDPEVKFNWYVDGVEVHNAKTKPREEQYNSTYRVVSVLTVLHQDWLNGKEYKCKVSNKALPAPIEKTISKAKGQPREPQVYTKPPSREEMTKNQVSLSCLVKGFYPSDIAVEWESNGQPENNYKTTVPVLDSDGSFRLASYLTVDKSRWQQGNVFSCSVMHEALHNHYTQKSLSLSPGK
Regarding B1, the Kd came to 8.62 nM in test [1], 4.96 nM in test [2], 3.09 nM in test [3] and 2.77 nM in test [4].

B2: 01B10R3L VHH Mono-Fc (Fc fusion)
chain: QVQLVESGGGLVQAGDSLRLSCAASGRTFTTYVMGWFRQPPGKEREFVATISWSGSTTYKYYADSVKGRFTISRDNAKNTVYLQMNSLKPEDTAVYYCAASTVVADPRAPNEYDYWGQGTQVTVSSSPAPELLGGPSVFLFPPKPKDTLMISRTPEVTCVVVDVSHEDPEVKFNWYVDGVEVHNAKTKPREEQYNSTYRVVSVLTVLHQDWLNGKEYKCKVSNKALPAPIEKTISKAKGQPREPQVYTKPPSREEMTKNQVSLSCLVKGFYPSDIAVEWESNGQPENNYKTTVPVLDSDGSFRLASYLTVDKSRWQQGNVFSCSVMHEALHNHYTQKSLSLSPGK
With B2, the Kd in test [1] came to 8.4 nM; in test [2], 3.75 nM; in test [3], 2.19 nM; in test [4] it was 1.58 nM.

B3: 01H06R3L VHH Mono-Fc (Fc fusion)
chain: EVQLVESGGGLVQAGDSLRLSCAASGRTRTTYGMGWFRQAPGKEREFVTTITWSGPTNYKYYADSVKGRFTISRDNAKNTAYLQMNSLKPDDTAVYYCAASTVLTDPRVPTEYDYWGQGTQVTVSSSPAPELLGGPSVFLFPPKPKDTLMISRTPEVTCVVVDVSHEDPEVKFNWYVDGVEVHNAKTKPREEQYNSTYRVVSVLTVLHQDWLNGKEYKCKVSNKALPAPIEKTISKAKGQPREPQVYTKPPSREEMTKNQVSLSCLVKGFYPSDIAVEWESNGQPENNYKTTVPVLDSDGSFRLASYLTVDKSRWQQGNVFSCSVMHEALHNHYTQKSLSLSPGK
For the molecule B3, the Kd in test [1] was 5.26 nM; in test [2], 4.56 nM; in test [3], 1.66 nM; in test [4], 0.897 nM.

B4: 01C08R2L VHH Mono-Fc (Fc fusion)
chain: EVQLVESGGGLVQAGDSLRLSCAASGRTFTTYGVGWFRQAPGKEREFVTTITWSGSTNYKYYADSVKGRFTISRDNAKNTVYLQMNSLKPDDTAVYYCAASTVLTDPRVPTEYDYWGQGTQVTVSSSPAPELLGGPSVFLFPPKPKDTLMISRTPEVTCVVVDVSHEDPEVKFNWYVDGVEVHNAKTKPREEQYNSTYRVVSVLTVLHQDWLNGKEYKCKVSNKALPAPIEKTISKAKGQPREPQVYTKPPSREEMTKNQVSLSCLVKGFYPSDIAVEWESNGQPENNYKTTVPVLDSDGSFRLASYLTVDKSRWQQGNVFSCSVMHEALHNHYTQKSLSLSPGK
As for B4, the Kd was found to be 9.44 nM in test [1], 5.67 nM in test [2], 4.14 nM in test [3] and 3.02 nM in test [4].

B5: 01G08R3LS VHH Mono-Fc (Fc fusion)
chain: QVQLVESGGGLVQAGDSLRLSCAASGRTFTTYGMGWFRQGPGKEREFVATITWSGSTNYKYYTDSVKGRFTISRDNAKNTVYLQMNSLKPEDTAVYYCAASTVLTDPRRLNEYDYWGQGTQVTVSSSPAPELLGGPSVFLFPPKPKDTLMISRTPEVTCVVVDVSHEDPEVKFNWYVDGVEVHNAKTKPREEQYNSTYRVVSVLTVLHQDWLNGKEYKCKVSNKALPAPIEKTISKAKGQPREPQVYTKPPSREEMTKNQVSLSCLVKGFYPSDIAVEWESNGQPENNYKTTVPVLDSDGSFRLASYLTVDKSRWQQGNVFSCSVMHEALHNHYTQKSLSLSPGK
With B5, the Kd was found to be 8.38 nM in test [1], 5.6 nM in test [2], 5.42 nM in test [3] and 2.27 nM in test [4].

B6: 01H11R2LS VHH Mono-Fc (Fc fusion)
chain: EVQLVESGGGLVQAGDSLRLSCAASGRTLTTYGMGWFRQAPGKEREFVATIKWSGSTNYKYYADSVKGRFTISRDNAKNTVYLQMNSLKPEDTAVYYCAAGTVLGDPRVLNEYDYWGQGTLVTVSSSPAPELLGGPSVFLFPPKPKDTLMISRTPEVTCVVVDVSHEDPEVKFNWYVDGVEVHNAKTKPREEQYNSTYRVVSVLTVLHQDWLNGKEYKCKVSNKALPAPIEKTISKAKGQPREPQVYTKPPSREEMTKNQVSLSCLVKGFYPSDIAVEWESNGQPENNYKTTVPVLDSDGSFRLASYLTVDKSRWQQGNVFSCSVMHEALHNHYTQKSLSLSPGK
With B6, the Kd in test [1] came out at 4.07 nM; in test [2], 2.67 nM; in test [3], 2.31 nM; in test [4], 1.46 nM.

B7: 02F10R3 VHH Mono-Fc (Fc fusion)
chain: EVQLVESGGGLVQPGGSLRLSCVVSGSFFSLRDMGWYRQAPGKERELVGIFTRGGTTYYADSVKGRFTISRDNAKNTVDLQMNSLKPEDTAVYTCNAEIRQYSANLYRDFWGQGTQVTVSSSPAPELLGGPSVFLFPPKPKDTLMISRTPEVTCVVVDVSHEDPEVKFNWYVDGVEVHNAKTKPREEQYNSTYRVVSVLTVLHQDWLNGKEYKCKVSNKALPAPIEKTISKAKGQPREPQVYTKPPSREEMTKNQVSLSCLVKGFYPSDIAVEWESNGQPENNYKTTVPVLDSDGSFRLASYLTVDKSRWQQGNVFSCSVMHEALHNHYTQKSLSLSPGK
Consider B7, for which the Kd is 6.15 nM in test [2] and 6.45 nM in test [4].

B8: 01E01R3LS VHH Mono-Fc (Fc fusion)
chain: QVQLVESGGGLVQAGGSLRLSCAASGRSFSSYNMGWFRQAPGKERDLVAVVTWSGGGTSYADSVKGRFTIARDNANARLYLEMTSLKPEDTAIYYCAATQDWYGGTRAFRAASFHSWGQGTQVTVSSSPAPELLGGPSVFLFPPKPKDTLMISRTPEVTCVVVDVSHEDPEVKFNWYVDGVEVHNAKTKPREEQYNSTYRVVSVLTVLHQDWLNGKEYKCKVSNKALPAPIEKTISKAKGQPREPQVYTKPPSREEMTKNQVSLSCLVKGFYPSDIAVEWESNGQPENNYKTTVPVLDSDGSFRLASYLTVDKSRWQQGNVFSCSVMHEALHNHYTQKSLSLSPGK
In the case of B8, the Kd in test [1] is 14.5 nM; in test [2], 34.5 nM; in test [4], 35.2 nM.

B9: 01A09R3LS VHH Mono-Fc (Fc fusion)
chain: QVQLVESGGGLVQAGGSLRLSCAASGRSFSSYNMVWLRQAPGKEREVVAAVTWSGGGTSYADSVKGRFTISRDNANVRVYLQMTGLKPEDTAIYYCAATQDWYGGSRAFRAASFHSWGQGTLVTVSSSPAPELLGGPSVFLFPPKPKDTLMISRTPEVTCVVVDVSHEDPEVKFNWYVDGVEVHNAKTKPREEQYNSTYRVVSVLTVLHQDWLNGKEYKCKVSNKALPAPIEKTISKAKGQPREPQVYTKPPSREEMTKNQVSLSCLVKGFYPSDIAVEWESNGQPENNYKTTVPVLDSDGSFRLASYLTVDKSRWQQGNVFSCSVMHEALHNHYTQKSLSLSPGK
On to B9, for which the figures for the Kd in test [2] and in test [4] were 35.2 nM and 22.5 nM, respectively.

B10: 01B03R2LS VHH Mono-Fc (Fc fusion)
chain: EVQLVESGGGLVQAGDSLRLSCAASGRTGSSGAMGWFRQGPGKEREFVAALMWRNTVTYSYYADSVKGRFTISRDNAKNTAYLQMNSLKPEDTAVYYCAADPDTYGDPRNSGAYSYWGQGTLVTVSSSPAPELLGGPSVFLFPPKPKDTLMISRTPEVTCVVVDVSHEDPEVKFNWYVDGVEVHNAKTKPREEQYNSTYRVVSVLTVLHQDWLNGKEYKCKVSNKALPAPIEKTISKAKGQPREPQVYTKPPSREEMTKNQVSLSCLVKGFYPSDIAVEWESNGQPENNYKTTVPVLDSDGSFRLASYLTVDKSRWQQGNVFSCSVMHEALHNHYTQKSLSLSPGK
As for B10, the Kd was 6.33 nM in test [2] and 11 nM in test [4].
